Reference: the RNAGym collection of RNA variant scans (doi:10.7554/elife.90254)

B1: LINE1-mini (parent)
chain: GGCAGAGCUCAACACAGCGUGGCAAAGUGGCUGUGGCUAGACUGCC

Variants of: B1
Experiment: self-cleavage, relative activity (ratio to wild type); higher = more cleavage; in vitro, sequencing; the parent is a self-cleaving ribozyme

**Q.** Which self-cleavage does the source give for GGCAGAGCUCAACACAGCGAGGCAAAGUGGCUGUGGCUAGGCUGCC here?
**A.** The self-cleavage was 0.36.

**Q.** For GGCAGAGCUCAACACAGCGAGGCAAAGUGGCUGUGGCUAGCCUGCC, which self-cleavage is on record?
**A.** Its self-cleavage is 0.05.

**Q.** For GGCAGAGCUCAACACAGCGAGGCAAAGUGGCUGUGGCUAGUCUGCC, which self-cleavage is on record?
**A.** Its self-cleavage is 0.35.

**Q.** With GGCAGAGCUCAACACAGCGAGACAAAGUGGCUGUGGCUAGACUGCC as the variant, how does the self-cleavage read?
**A.** Its self-cleavage is 0.55.

**Q.** Which self-cleavage does the source give for GGCAGAGCUCAACACAGCGAGUCAAAGUGGCUGUGGCUAGACUGCC here?
**A.** Its self-cleavage is 0.91.

**Q.** Which self-cleavage does the source give for GGCAGAGCUCAACACAGCGAGCCAAAGUGGCUGUGGCUAGACUGCC here?
**A.** The self-cleavage was 0.38.

**Q.** For GGCAGAGCUCAACACAGCUUGGCAAAGUUGCUGUGGCUAGACUGCC, which self-cleavage is on record?
**A.** The self-cleavage was 0.8.

**Q.** Which self-cleavage does the source give for GGCAGAGCUCAACACAGCUUGGCAAAGUCGCUGUGGCUAGACUGCC here?
**A.** The self-cleavage was 0.64.

**Q.** For GGCAGAGCUCAACACAGCUUGGCAAAGUAGCUGUGGCUAGACUGCC, which self-cleavage is on record?
**A.** The self-cleavage was 0.93.

**Q.** For GGCAGAGCUCAACACAGCGAGGCAAAGUGGCUGUGGAUAGACUGCC, which self-cleavage is on record?
**A.** The self-cleavage was 0.05.

**Q.** For GGCAGAGCUCAACACAGCGAGGCAAAGUGGCUGUGGUUAGACUGCC, which self-cleavage is on record?
**A.** The self-cleavage was 0.05.

**Q.** With GGCAGAGCUCAACACAGCGAGGCAAAGUGGCUGUGGGUAGACUGCC as the variant, how does the self-cleavage read?
**A.** The self-cleavage was 0.03.

**Q.** Which self-cleavage does the source give for GGCAGAGCUCAACACAGCGAGGCCAAGUGGCUGUGGCUAGACUGCC here?
**A.** The self-cleavage was 0.28.

**Q.** Which self-cleavage does the source give for GGCAGAGCUCAACACAGCGAGGCUAAGUGGCUGUGGCUAGACUGCC here?
**A.** The self-cleavage was 0.62.

**Q.** Which self-cleavage does the source give for GGCAGAGCUCAACACAGCGAGGCGAAGUGGCUGUGGCUAGACUGCC here?
**A.** The self-cleavage was 0.68.

**Q.** For GGCAGAGCUCAACACAGCGAGGCAAAGUGGCUGUGGCUAGAGUGCC, which self-cleavage is on record?
**A.** The self-cleavage was 0.04.

**Q.** With GGCAGAGCUCAACACAGCGAGGCAAAGUGGCUGUGGCUAGAUUGCC as the variant, how does the self-cleavage read?
**A.** The self-cleavage was 0.12.

**Q.** For GGCAGAGCUCAACACAGCGAGGCAAAGUGGCUGUGGCUAGAAUGCC, which self-cleavage is on record?
**A.** Its self-cleavage is 0.11.

**Q.** With GGCAGAGCUCAACACAGCUUGGAAAAGUGGCUGUGGCUAGACUGCC as the variant, how does the self-cleavage read?
**A.** Its self-cleavage is 0.64.

**Q.** With GGCAGAGCUCAACACAGCUUGGGAAAGUGGCUGUGGCUAGACUGCC as the variant, how does the self-cleavage read?
**A.** The self-cleavage was 0.7.

**Q.** Which self-cleavage does the source give for GGCAGAGCUCAACACAGCUUGGUAAAGUGGCUGUGGCUAGACUGCC here?
**A.** The self-cleavage was 1.03.

**Q.** With GGCAGAGCUCAACACAGCGAGGCAAAGUGGCUGUGGCUAGACUGAC as the variant, how does the self-cleavage read?
**A.** The self-cleavage was 0.77.

**Q.** With GGCAGAGCUCAACACAGCGAGGCAAAGUGGCUGUGGCUAGACUGGC as the variant, how does the self-cleavage read?
**A.** Its self-cleavage is 0.21.

**Q.** For GGCAGAGCUCAACACAGCGAGGCAAAGUGGCUGUGGCUAGACUGUC, which self-cleavage is on record?
**A.** Its self-cleavage is 1.4.

**Q.** Which self-cleavage does the source give for GGCAGAGCUCAACACAGCUCGGCAAAGUGGCUGUGGCUAGACUGCC here?
**A.** The self-cleavage was 0.76.

**Q.** Which self-cleavage does the source give for GGCAGAGCUCAACACAGCUGGGCAAAGUGGCUGUGGCUAGACUGCC here?
**A.** Its self-cleavage is 0.77.

**Q.** For GGCAGAGCUCAACACAGCUAGGCAAAGUGGCUGUGGCUAGACUGCC, which self-cleavage is on record?
**A.** The self-cleavage was 0.86.

**Q.** With GGCAGAGCUCAACACAGCUUGUCAAAGUGGCUGUGGCUAGACUGCC as the variant, how does the self-cleavage read?
**A.** The self-cleavage was 0.63.

**Q.** With GGCAGAGCUCAACACAGCUUGCCAAAGUGGCUGUGGCUAGACUGCC as the variant, how does the self-cleavage read?
**A.** Its self-cleavage is 0.5.

**Q.** With GGCAGAGCUCAACACAGCUUGACAAAGUGGCUGUGGCUAGACUGCC as the variant, how does the self-cleavage read?
**A.** The self-cleavage was 0.78.

**Q.** With GGCAGAGCUCAACACAGCUUGGCAAAGUGGCUGAGGCUAGACUGCC as the variant, how does the self-cleavage read?
**A.** The self-cleavage was 0.13.

**Q.** With GGCAGAGCUCAACACAGCUUGGCAAAGUGGCUGGGGCUAGACUGCC as the variant, how does the self-cleavage read?
**A.** The self-cleavage was 0.16.

**Q.** Which self-cleavage does the source give for GGCAGAGCUCAACACAGCUUGGCAAAGUGGCUGCGGCUAGACUGCC here?
**A.** Its self-cleavage is 0.17.

**Q.** Which self-cleavage does the source give for GGCAGAGCUCAACACAGCGAGGCAAACUGGCUGUGGCUAGACUGCC here?
**A.** The self-cleavage was 0.24.

**Q.** With GGCAGAGCUCAACACAGCGAGGCAAAUUGGCUGUGGCUAGACUGCC as the variant, how does the self-cleavage read?
**A.** Its self-cleavage is 0.81.

**Q.** For GGCAGAGCUCAACACAGCGAGGCAAAAUGGCUGUGGCUAGACUGCC, which self-cleavage is on record?
**A.** The self-cleavage was 0.83.

**Q.** Which self-cleavage does the source give for GGCAGAGCUCAACACAGCUUGGCAAAGUGGCUGUGGCUAGACGGCC here?
**A.** Its self-cleavage is 0.02.

**Q.** For GGCAGAGCUCAACACAGCUUGGCAAAGUGGCUGUGGCUAGACCGCC, which self-cleavage is on record?
**A.** Its self-cleavage is 0.07.

**Q.** Which self-cleavage does the source give for GGCAGAGCUCAACACAGCUUGGCAAAGUGGCUGUGGCUAGACAGCC here?
**A.** The self-cleavage was 0.06.

**Q.** Which self-cleavage does the source give for GGCAGAGCUCAACACAGCUUGGCAAAGUGGCUGUGGAUAGACUGCC here?
**A.** Its self-cleavage is 0.05.

**Q.** Which self-cleavage does the source give for GGCAGAGCUCAACACAGCUUGGCAAAGUGGCUGUGGUUAGACUGCC here?
**A.** Its self-cleavage is 0.04.

**Q.** For GGCAGAGCUCAACACAGCUUGGCAAAGUGGCUGUGGGUAGACUGCC, which self-cleavage is on record?
**A.** The self-cleavage was 0.02.

**Q.** For GGCAGAGCUCAACACAGCGAGGCAAAGUGGCUGUGGCUCGACUGCC, which self-cleavage is on record?
**A.** Its self-cleavage is 0.08.

**Q.** Which self-cleavage does the source give for GGCAGAGCUCAACACAGCGAGGCAAAGUGGCUGUGGCUUGACUGCC here?
**A.** Its self-cleavage is 0.62.

**Q.** For GGCAGAGCUCAACACAGCGAGGCAAAGUGGCUGUGGCUGGACUGCC, which self-cleavage is on record?
**A.** The self-cleavage was 0.06.

**Q.** Which self-cleavage does the source give for GGCAGAGCUCAACACAGCGAGGCAAAGUGGCUGUGGCUAGACUGCC here?
**A.** The self-cleavage was 0.68.

**Q.** For GGCAGAGCUCAACACAGCUUAGCAAAGUGGCUGUGGCUAGACUGCC, which self-cleavage is on record?
**A.** Its self-cleavage is 0.64.

**Q.** For GGCAGAGCUCAACACAGCUUCGCAAAGUGGCUGUGGCUAGACUGCC, which self-cleavage is on record?
**A.** Its self-cleavage is 0.81.

**Q.** Which self-cleavage does the source give for GGCAGAGCUCAACACAGCUUUGCAAAGUGGCUGUGGCUAGACUGCC here?
**A.** The self-cleavage was 0.58.

**Q.** Which self-cleavage does the source give for GGCAGAGCUCAACACAGCUUGGCAAAUUGGCUGUGGCUAGACUGCC here?
**A.** Its self-cleavage is 0.58.

**Q.** Which self-cleavage does the source give for GGCAGAGCUCAACACAGCUUGGCAAAAUGGCUGUGGCUAGACUGCC here?
**A.** The self-cleavage was 0.54.

**Q.** For GGCAGAGCUCAACACAGCUUGGCAAACUGGCUGUGGCUAGACUGCC, which self-cleavage is on record?
**A.** Its self-cleavage is 0.75.

**Q.** With GGCAGAGCUCAACACAGCUUGGCAAAGUGGCUAUGGCUAGACUGCC as the variant, how does the self-cleavage read?
**A.** Its self-cleavage is 0.18.

**Q.** Which self-cleavage does the source give for GGCAGAGCUCAACACAGCUUGGCAAAGUGGCUUUGGCUAGACUGCC here?
**A.** The self-cleavage was 0.13.

**Q.** Which self-cleavage does the source give for GGCAGAGCUCAACACAGCUUGGCAAAGUGGCUCUGGCUAGACUGCC here?
**A.** Its self-cleavage is 0.07.

**Q.** Which self-cleavage does the source give for GGCAGAGCUCAACACAGCGAGGCAAAGUGGCUGUGGCUAGACUGCU here?
**A.** The self-cleavage was 0.65.
